Consider one molecule from US20230226151A1 (NGM BIOPHARMACEUTICALS, published 2023).

For this assay, the target named is Mouse FGFR4/β-klotho complex co-expressed in L6 cells (mouse, UniProt Q03142 17-799; Q99N32 1-1043). Kind of assay: cell-based or functional assay.
Chain of Mouse FGFR4/β-klotho complex co-expressed in L6 cells (Q03142 17-799, chain 1 of 2): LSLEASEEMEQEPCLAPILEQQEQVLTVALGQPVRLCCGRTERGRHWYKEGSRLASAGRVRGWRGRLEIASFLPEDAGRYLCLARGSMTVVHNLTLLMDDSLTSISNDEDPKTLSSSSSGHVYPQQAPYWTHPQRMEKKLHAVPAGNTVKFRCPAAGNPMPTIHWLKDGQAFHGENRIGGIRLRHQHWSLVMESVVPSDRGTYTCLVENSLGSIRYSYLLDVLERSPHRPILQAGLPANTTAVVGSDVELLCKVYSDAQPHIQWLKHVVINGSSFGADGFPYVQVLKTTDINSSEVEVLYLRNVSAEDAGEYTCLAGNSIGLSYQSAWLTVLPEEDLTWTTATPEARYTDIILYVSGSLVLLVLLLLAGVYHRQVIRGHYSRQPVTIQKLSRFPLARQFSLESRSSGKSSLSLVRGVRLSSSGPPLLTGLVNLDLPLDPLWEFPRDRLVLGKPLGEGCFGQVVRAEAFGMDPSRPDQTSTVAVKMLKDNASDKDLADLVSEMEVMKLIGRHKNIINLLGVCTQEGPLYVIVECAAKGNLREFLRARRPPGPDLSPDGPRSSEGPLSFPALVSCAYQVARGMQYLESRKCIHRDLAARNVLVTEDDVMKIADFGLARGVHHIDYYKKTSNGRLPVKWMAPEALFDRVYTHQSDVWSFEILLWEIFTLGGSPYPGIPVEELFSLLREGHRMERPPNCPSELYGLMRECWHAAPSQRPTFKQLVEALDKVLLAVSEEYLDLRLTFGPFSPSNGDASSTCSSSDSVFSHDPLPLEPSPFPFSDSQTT
Chain of Mouse FGFR4/β-klotho complex co-expressed in L6 cells (Q99N32 whole entry, chain 2 of 2): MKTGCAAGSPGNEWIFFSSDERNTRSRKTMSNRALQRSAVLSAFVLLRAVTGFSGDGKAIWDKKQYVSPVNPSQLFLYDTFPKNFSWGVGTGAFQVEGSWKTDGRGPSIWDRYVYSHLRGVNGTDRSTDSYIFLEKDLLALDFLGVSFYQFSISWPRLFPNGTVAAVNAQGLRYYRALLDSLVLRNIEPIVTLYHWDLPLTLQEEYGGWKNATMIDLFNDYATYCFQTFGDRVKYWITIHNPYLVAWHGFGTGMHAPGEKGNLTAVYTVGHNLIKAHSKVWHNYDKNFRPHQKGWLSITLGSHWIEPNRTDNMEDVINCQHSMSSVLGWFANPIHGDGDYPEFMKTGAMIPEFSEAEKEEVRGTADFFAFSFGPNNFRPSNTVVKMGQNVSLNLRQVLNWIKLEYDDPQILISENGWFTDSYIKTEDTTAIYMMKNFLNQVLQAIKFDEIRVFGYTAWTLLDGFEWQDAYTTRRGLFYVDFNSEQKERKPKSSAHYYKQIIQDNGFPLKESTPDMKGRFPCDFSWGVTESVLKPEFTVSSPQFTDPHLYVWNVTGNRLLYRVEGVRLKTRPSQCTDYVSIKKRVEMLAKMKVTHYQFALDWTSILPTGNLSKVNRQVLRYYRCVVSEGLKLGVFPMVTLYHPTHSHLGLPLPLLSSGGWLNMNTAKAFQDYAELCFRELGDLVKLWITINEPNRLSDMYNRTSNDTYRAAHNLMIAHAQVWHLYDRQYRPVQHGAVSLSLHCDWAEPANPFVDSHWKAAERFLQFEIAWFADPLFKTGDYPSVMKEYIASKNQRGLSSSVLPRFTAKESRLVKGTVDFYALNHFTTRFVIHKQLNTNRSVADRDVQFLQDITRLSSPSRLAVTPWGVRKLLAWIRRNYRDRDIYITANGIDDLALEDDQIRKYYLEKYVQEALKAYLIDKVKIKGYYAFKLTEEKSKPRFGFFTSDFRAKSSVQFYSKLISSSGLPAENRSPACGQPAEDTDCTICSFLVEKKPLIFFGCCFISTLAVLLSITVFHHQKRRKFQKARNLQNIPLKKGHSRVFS

B1: M70 (FGF19 variant) (ligand)
chain: MRDSSPLVHYGWGDPIRLRHLYTSGPHGLSSCFLRIRADGVVDCARGQSAHSLLEIKAVALRTVAIKGVHSVRYLCMGADGKMQGLLQYSEEDCAFEEEIRPDGYNVYRSEKHRLPVSLSSAKQRQLYKNRGFLPLSHFLPMLPMVPEEPEDLRGHLESDMFSSPLETDSMDPFGLVTGLEAVRSPSFEK
For the molecule B1, the “EC50 (pM), ELK1 luciferase reporter in L6 cells” value amounted to 38.3 pM and the “Emax (fold potentiation), ELK1 luciferase reporter in L6 cells” value was 1.85 fold potentiation.
